According to US20200323863:

Key:
[1] = target: YAP1 Recombinant Protein (Abnova H00010413-P01), P46937
[2] = target: T1, GST-MOB1 (GST fusion of MOB1, from pGEX-HA-MOB1), Q9H8S9
T1 chain: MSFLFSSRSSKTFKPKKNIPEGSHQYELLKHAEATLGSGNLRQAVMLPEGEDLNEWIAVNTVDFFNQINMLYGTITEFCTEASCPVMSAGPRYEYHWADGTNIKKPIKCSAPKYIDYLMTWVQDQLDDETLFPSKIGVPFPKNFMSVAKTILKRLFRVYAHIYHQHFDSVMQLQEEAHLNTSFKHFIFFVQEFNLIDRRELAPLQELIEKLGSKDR

B1: active recombinant human FAK (catalytic domain, FAK-C) (protein)
chain: ETDDYAEIIDEEDTYTMPSTRDYEIQRERIELGRCIGEGQFGDVHQGIYMSPENPALAVAIKTCKNCTSDSVREKFLQEALTMRQFDHPHIVKLIGVITENPVWIIMELCTLGELRSFLQVRKYSLDLASLILYAYQLSTALAYLESKRFVHRDIAARNVLVSSNDCVKLGDFGLSRYMEDSTYYKASKGKLPIKWMAPESINFRRFTSASDVWMFGVCMWEILMHGVKPFQGVKNNDVIGRIENGERLPMPPNCPPTLYSLMTKCWAYDPSRRPRFTELKAQLSTILEEEKAQQEERMRMESRRQ
With B1 the “YAP Y357 phosphorylation in an in vitro kinase reaction (immunoblot)” value [1] was “FAK was able to phosphorylate YAP at Y357 in vitro” and the “Y26 phosphorylation of GST-MOB1 in an in vitro kinase reaction (immunoblot)” value [2] was “FAK was able to directly phosphorylate MOB1 on its Y26 by in vitro kinase reaction using purified recombinant proteins”.
